Experimental data from US20030224375A1, “Assays for evaluating the function of rna helicases” (priority 2002, published 2003).

Tests used:
[1] = target: NPH-II (DExH RNA helicase) (Vaccinia virus) (UniProt P12927); assay: EMSA
[2] = target: U1A (N-terminal RNP domain, residues 1-117) (UniProt P09012); assay: EMSA
[3] = system: RNA substrate containing the U1A binding site from the 3′-untranslated region (UTR) of U1A mRNA; conditions: previously shown; cited from earlier work
[4] = system: RNA substrate containing the U1A binding site from the 3′-untranslated region (UTR) of U1A mRNA; assay: U1A dissociation (off-rate) from RNA substrate, gel-shift with U1A trap
Method: (§1) FIG. 3. Active displacement of U1A by NPH-II. Dissociation experiments were conducted with 1 nM RNA substrate and 10 nM U1A in a buffer of 40 mM Tris/HCl (pH 8.0), 4 mM MgCl2 at 23° C. (final volume, 40 μL)- Reactions were performed as described in FIG. 2, except that they were initiated by addition of ATP (3.5 mM final concentration) and U1A trap (200 nM final concentration (16)), as indicated. Aliquots (6 μL) were withdrawn at 0, 1, 4, 8, 12, and 20 minutes, mixed with 2 μL of 100 mM EDTA and 2.5 μM NPH-II trap (which serves to capture dissociated NPH-II (16)) in 30% glycerol. Each aliquot was then loaded immediately on a 8% native polyacrylamide gel, which was run at 4° C. at 10V/cm. Bands were visualized by PhosphorImager. U1A-bound and free RNA as well as unwound and duplex RNA species are indicated by the cartoons at left (D: bound U1A dimer, M: bound U1A monomer, F: U1A free duplex substrate, U: unwound substrate). A. Release of U1A upon addition of ATP (initiated by adding ATP together with U1A trap). B. Release of U1A upon addition of NPH-II without ATP (initiated by adding only U1A trap). C. Release of U1A in the presence of ATP and NPH-II (initiated by adding ATP together with U1A trap) D. Trapping control: U1A trap is added together with RNA substrate to assess trapping efficiency. Aliquots were removed and treated as described above. E-H. Same reactions as above, but with blunt-end control duplex.
The off-rate for U1A was measured by saturating the substrate with U1A and, after complex formation, adding a large excess of RNA that contains another high-affinity U1A binding site (15). This prevented U1A from re-binding the substrate once it detached and enabled us to monitor the rate of U1A release by gel-shift electrophoresis (FIG. 3).

[5] = target: U1A (N-terminal RNP domain, residues 1-117) (UniProt P09012 P09012:1-117); assay: competition; used at 200 nM to trap dissociated U1A; conditions: chain copies: 2 (stated, dimer; monomer also seen); hairpin
Method: as §1, with “MgCl₂” for “MgCl2”, “E-H. Same reactions as above, but with blunt-end control duplex.” left out

DNA = conditions: cited from earlier work

Molecule: 36 bp duplex substrate LS36 with 3' overhang
- activity ([1]; unwinding rate constant 3.5±0.2 independent of duplex length, Mg2+, 3.5 mM ATP): 3.5 min⁻¹

Molecule: 83 bp duplex substrate LS83 with 3' overhang
- activity ([1]; unwinding rate constant 3.5±0.2 independent of duplex length, lower amplitude with trap RNA, Mg2+, 3.5 mM ATP): 3.5 min⁻¹

Molecule: U1A 3'UTR binding site helicase substrate with 24-nt 3' overhang (AN22U-3')
- koff ([2]; 40 mM Tris pH 8.0, 4 mM MgCl2, 23 C, U1A trap, no NPH-II, high affinity binding at 10 nM U1A): 0.000167 s⁻¹
- activity ([1]; unwinding rate constant without U1A, 3.5 mM ATP, 4 mM MgCl2, pH 8.0, room temperature, with U1A k1 3.52 min-1): 3.5 min⁻¹

Molecule: U1A: RNA-binding protein with N-terminal RNP domain, constituent of the spliceosomal machinery
- affinity of extended two-piece substrate for U1A binding [3]: subnanomolar affinity
- U1A binding to substrate and control RNA ([4]; gel shift, 1 nM RNA, 10 nM U1A): high affinity
- off-rate koff of U1A ([4]; without NPH-II (and ATP)): ~10^−2 min^−1
- U1A dissociates from the substrate ([4]; without NPH-II, within 20 minutes): roughly 15%

Molecule: blunt-end U1A binding site control duplex
- koff ([2]; off-rate similar to overhang substrate, not increased by NPH-II plus ATP): 0.000167 s⁻¹

Molecule: multi-piece substrates (nicked top strand)
- activity ([1]; both pieces displaced, 3.3±0.5, Mg2+, trap RNA, 3'-to-5' directionality): 3.3 min⁻¹

Molecule: GGAGAACCAUUGCACUCCGGUUCUUC (ssRNA) [U1A trap (U1 snRNA hairpin)]
- binding result [5]: binds

B1: UvrD DNA helicase: DNA helicase cited for comparison of unwinding step size (Ali and Lohmann, 1997) (protein, UniProt P03018 1-720, looked up)
DNA helicase II: MDVSYLLDSLNDKQREAVAAPRSNLLVLAGAGSGKTRVLVHRIAWLMSVENCSPYSIMAVTFTNKAAAEMRHRIGQLMGTSQGGMWVGTFHGLAHRLLRAHHMDANLPQDFQILDSEDQLRLLKRLIKAMNLDEKQWPPRQAMWYINSQKDEGLRPHHIQSYGNPVEQTWQKVYQAYQEACDRAGLVDFAELLLRAHELWLNKPHILQHYRERFTNILVDEFQDTNNIQYAWIRLLAGDTGKVMIVGDDDQSIYGWRGAQVENIQRFLNDFPGAETIRLEQNYRSTSNILSAANALIENNNGRLGKKLWTDGADGEPISLYCAFNELDEARFVVNRIKTWQDNGGALAECAILYRSNAQSRVLEEALLQASMPYRIYGGMRFFERQEIKDALSYLRLIANRNDDAAFERVVNTPTRGIGDRTLDVVRQTSRDRQLTLWQACRELLQEKALAGRAASALQRFMELIDALAQETADMPLHVQTDRVIKDSGLRTMYEQEKGEKGQTRIENLEELVTATRQFSYNEEDEDLMPLQAFLSHAALEAGEGQADTWQDAVQLMTLHSAKGLEFPQVFIVGMEEGMFPSQMSLDEGGRLEEERRLAYVGVTRAMQKLTLTYAETRRLYGKEVYHRPSRFIGELPEECVEEVRLRATVSRPVSHQRMGTPMVENDSGYKLGQRVRHAKFGEGTIVNMEGSGEHSRLQVAFQGQGIKWLVAAYARLESV
- unwinding step size (DNA): 4-5 bp
